In article PMC12142670:
pKd: −log10 of the molar value. Read-outs that look alike come from different tables or passages of the source. Each block holds one substance with its values, some of them ahead of it.

Assays:
[1] = molecular target: hinge-deleted human IgG4 anti-epidermal growth factor receptor (EGFR) antibody (IgG4Δhinge), R409K variant (human); assay: native MS; variable-temperature ESI native MS (vT-ESI-MS); 2.5 uM antibody in 150 mM ammonium acetate pH 7.5; continuous ramp from 30 to 100 °C at 2 °C/min; full noncovalent antibody to two half antibodies
[2] = molecular target: hinge-deleted human IgG4 anti-epidermal growth factor receptor (EGFR) antibody (IgG4Δhinge), L368A variant (human); assay: as above
[3] = molecular target: hinge-deleted human IgG4 anti-epidermal growth factor receptor (EGFR) antibody (IgG4Δhinge), L368A variant (human); assay: as above; remark: listed apart in the source
[4] = molecular target: IgG4 heavy chain CH3 (Homo sapiens) [IgG part: P01861]; details: cited from earlier work

Chain of IgG4 heavy chain CH3 (P01861 218-328): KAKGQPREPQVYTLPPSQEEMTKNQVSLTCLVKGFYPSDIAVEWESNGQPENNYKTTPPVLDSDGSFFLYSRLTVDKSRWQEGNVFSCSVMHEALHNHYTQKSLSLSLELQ

- T1/2 (dissociation temperature of the full antibody into half antibodies) [1]: 77 °C
Substance: hinge-deleted human IgG4 anti-epidermal growth factor receptor (EGFR) antibody (IgG4Δhinge), R409K variant

- T1/2 (dissociation temperature of the full antibody into half antibodies) [2]: 53 °C
- T1/2 (dissociation temperature of the full antibody into half antibodies) [3]: 52 °C
Substance: hinge-deleted human IgG4 anti-epidermal growth factor receptor (EGFR) antibody (IgG4Δhinge), L368A variant

Substance: IgG4 heavy chain CH3 (from UniProt P01861)
- pKd [4]: 7.30
